Results as given in article PMC7193532 (Acta Crystallographica. Section D, Structural Biology, 2020).
Values joined by “and” are separate entries in the source; they are usually repeats but may differ in a detail not shown here. Equal values may be shown once.

Target: the Ala and ValAla insertions and the Met1Ala substitution and Ala insertion
Assay: SPR

rufomycin I (RUF-I) (peptide)
fold reduction in binding affinity against wild type: 13 fold and 16 fold
